We go through one substance from patent US20050221343A1.

Common to all, as to test: cell-based or functional assay
In assay [1] the target is (GFP S10 A10)-L1-NdeI::HPS::BamH1-L2-(GFP S11 SM5) (Pyrobaculum aerophilum).
For assay [2], the target named is (GFP S10 SM5)-L1-sulfite reductase-L2-(GFP S11 SM5) (Pyrobaculum aerophilum).
Assay [3] addresses (GFP S10)-L1-sulfite reductase-L2-(GFP S11) (Pyrobaculum aerophilum).
Assay [4] deals with sulfite reductase-GFP S10-11 OPT fusion protein (Pyrobaculum aerophilum; Aequorea victoria).

Values joined by “and” are separate entries in the source; they are usually repeats but may differ in a detail not shown here. Identical values can stand only once.

Sequence of (GFP S10 A10)-L1-NdeI::HPS::BamH1-L2-(GFP S11 SM5) (Pyrobaculum aerophilum) (main, as listed by the source): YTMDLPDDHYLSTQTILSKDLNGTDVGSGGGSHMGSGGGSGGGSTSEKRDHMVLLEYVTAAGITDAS
Sequence of (GFP S10 SM5)-L1-sulfite reductase-L2-(GFP S11 SM5) (Pyrobaculum aerophilum) (main, as listed by the source): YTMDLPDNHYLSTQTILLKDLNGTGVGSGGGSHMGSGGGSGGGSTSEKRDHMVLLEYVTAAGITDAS

For the substance GFP 1-9 OPT (from UniProt P42212 1-197), the complementation signal relative to detection with GFP 1-10 OPT in assay [1] was 0.2 and 0.25. The complementation rate in assay [2] worked out at 20 fold. In addition, the complementation efficiency relative to the C-terminal GFP S11 M3 + GFP 1-10 OPT format in assay [3] worked out at 0.033. In addition, the tagged fragment concentration at which complementation fluorescence plateaus, with limiting 2.5 µM GFP 1-9 OPT in assay [4] is more than 2.5 µM.
